Test results published in PMC3323627.

Biological target: Tula virus (TULV) nonstructural protein NSs, strain Lodz, in infected cells (Tula virus, strain Lodz)
Experiment: FRET or BRET

“ACBD3 protein, endogenous in common vole (Microtus arvalis) kidney cells (natural protein)” was tested. Which FRET efficiency did it give?
Its FRET efficiency is 20%.
